Publication PMC11275528 (mAbs, 2024)

Biological target: T1, mouse asialoglycoprotein receptor 1 (ASGR1), FLAG tagged, expressed on CHO-S cells (mouse, UniProt P34927 1-284)
T1 sequence (looked up): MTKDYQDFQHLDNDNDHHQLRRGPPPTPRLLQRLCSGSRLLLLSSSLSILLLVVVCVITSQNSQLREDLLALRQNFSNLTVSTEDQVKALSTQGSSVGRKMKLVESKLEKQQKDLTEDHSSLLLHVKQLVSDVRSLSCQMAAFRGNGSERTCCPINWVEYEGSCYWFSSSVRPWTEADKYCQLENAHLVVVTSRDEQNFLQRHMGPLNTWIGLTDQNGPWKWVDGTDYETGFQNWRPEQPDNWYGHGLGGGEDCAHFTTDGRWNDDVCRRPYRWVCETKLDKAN
Test: flow cytometry on cells

B1: asialofetuin (ligand)
chain: IPLDPVAGYKEPACDDPDTEQAALAAVDYINKHLPRGYKHTLNQIDSVKVWPRRPTGEVYDIEIDTLETTCHVLDPTPLANCSVRQQTQHAVEGDCDIHVLKQDGQFSVLFTKCDSSPDSAEDVRKLCPDCPLLAPLNDSRVVHAVEVALATFNAESNGSYLQLVEISRAQFVPLPVSVSVEFAVAATDCIAKEVVDPTKCNLLAEKQYGFCKGSVIQKALGGEDVRVTCTLFQTQPVIPQPQPDGAEAEAPSAVPDAAGPTPSAAGPPVASVVVGPSVVAVPLPLHRAHYDLRHTFSGVASVESSSGEAFHVGKTPIVGQPSIPGGPVRLCPGRIRYFKI
modifications: biotinylated (site not stated); desialylated with neuraminidase
B1 gave an EC50 of 0.053 µM.
